Molecular target: trypsin
Assay: cell-based or functional assay

Row | Specific Inh. Activity [TIU/mg IαIp] | Substance
1 | 1410 TIU/mg IαIp | Highly purified human IαIp (mixture of inter-alpha inhibitor IαI and pre-alpha inhibitor PαI) purified from cryo-poor plasma (from UniProt P02760 206-352; P19827 35-672; P19823 55-702; Q06033 35-651)
2 | 1410 TIU/mg IαIp | Human IαIp (mixture of inter-alpha inhibitor IαI and pre-alpha inhibitor PαI) purified from cryoprecipitate, a side-fraction of fVIII production (from UniProt P02760 206-352; P19827 35-672; P19823 55-702; Q06033 35-651)

— patent USRE47972
